Patent publication US20240247080A1, “GLP1/GIP/NPY2 RECEPTOR TRIPLE AGONISTS” (Boehringer Ingelheim International GmbH, priority 2022, published 2024)
Starred links: 1 amine or outer side, 2 acyl side, 3 side chain; linkers in the order of their positions; H or OH if unused. Non-standard residues stand in square brackets, D forms with d. Groups on a side chain read outwards from the residue. No end group written: not given here. *: point of attachment. C20 diacid = O=C(O)CCCCCCCCCCCCCCCCCCC(=O)*; C18 diacid = O=C(O)CCCCCCCCCCCCCCCCC(=O)*; γGlu = O=C(O)[C@H](CCC(=O)[*:2])N[*:1]; εLys = N[C@@H](CCCCN[*:1])C(=O)[*:2]; AEEA = NCCOCCOCC(=O)O; Aib = CC(C)(N)C(=O)O

T1: human neuropeptide Y2 receptor (human, UniProt P49146 1-381)
T1 sequence (looked up): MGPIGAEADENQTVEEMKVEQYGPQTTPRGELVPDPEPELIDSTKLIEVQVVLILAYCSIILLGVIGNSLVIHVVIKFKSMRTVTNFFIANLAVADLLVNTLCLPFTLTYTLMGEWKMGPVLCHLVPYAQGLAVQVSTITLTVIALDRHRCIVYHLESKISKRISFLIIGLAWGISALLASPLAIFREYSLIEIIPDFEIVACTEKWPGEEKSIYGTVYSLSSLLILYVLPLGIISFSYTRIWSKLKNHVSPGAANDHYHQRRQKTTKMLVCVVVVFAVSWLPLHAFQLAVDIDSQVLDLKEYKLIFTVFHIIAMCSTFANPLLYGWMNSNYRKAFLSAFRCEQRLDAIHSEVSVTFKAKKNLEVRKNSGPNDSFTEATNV

T2: human GIP receptor (human, UniProt P48546 22-466)
T2 sequence (looked up): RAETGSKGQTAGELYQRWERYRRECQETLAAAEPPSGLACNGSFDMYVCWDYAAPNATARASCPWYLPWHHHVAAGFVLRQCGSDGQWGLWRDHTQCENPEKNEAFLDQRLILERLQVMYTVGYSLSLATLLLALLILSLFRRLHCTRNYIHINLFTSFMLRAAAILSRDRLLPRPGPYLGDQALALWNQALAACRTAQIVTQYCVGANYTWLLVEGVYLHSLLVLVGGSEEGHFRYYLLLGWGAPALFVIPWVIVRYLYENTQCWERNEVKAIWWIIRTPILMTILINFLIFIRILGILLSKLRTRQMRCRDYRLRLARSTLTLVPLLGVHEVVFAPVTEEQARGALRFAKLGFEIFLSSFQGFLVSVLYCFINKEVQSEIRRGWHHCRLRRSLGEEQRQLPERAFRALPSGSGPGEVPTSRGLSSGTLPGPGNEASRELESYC

B1: Compound 289 (peptide)
peptide: YXEGTFTSDYSIXLEKQAQXAFVEWLIKGGPSEGASLRHYYNWLTRQRY
modifications: Aib at 2, 13, 20; K28 side chain acylated with C20DA-gGlu-gGlu-gGlu-gGlu-gGlu; C-terminal amide (NH2)
B2: Compound 301 (peptide)
peptide: B1 peptide
modifications: Aib at 2, 13, 20; K28 side chain acylated with C20DA-gGlu-gGlu-gGlu-gGlu-gGlu-AHX; C-terminal amide (NH2)
B3: Compound 293 (peptide)
peptide: B1 peptide
modifications: Aib at 2, 13, 20; K28 side chain acylated with C18DA-gGlu-Glu-gGlu-gGlu-gGlu-gGlu-eLys (so in the source); C-terminal amide (NH2)
B4: Compound 292 (peptide)
peptide: B1 peptide
modifications: Aib at 2, 13, 20; K28 side chain acylated with C18DA-gGlu-gGlu-gGlu-gGlu-gGlu; C-terminal amide (NH2)

The binders below were run against T1, human neuropeptide Y2 receptor (assay: cell-based or functional assay).

Row | EC50 hNPY2R 0.5% hP (CreLuc) | EC50 hNPY2R 100% hP (CreLuc) | Binder
1 | 11.1 nM | 56.3 nM | B1
2 | 25.4 nM | 99.3 nM | B2
3 | 13.6 nM | 37.5 nM | B3
4 | 19.9 nM | 70 nM | B4
5 | 10.9 nM | 30.2 nM | Y[Aib]EGTFTSDYSI[Aib]LEKQAQ[Aib]AFVEWLIKGGPSEGASLRHYYNWLTRQRY-NH2 (not fully specified (residue 28); also: TFA salt) [Compound 295]
6 | 14.3 nM | 55.3 nM | Y[Aib]EGTFTSDYSI[Aib]LEKQAQ[Aib]AFVEWLIK([Glu-Glu-Glu-Glu-C18 diacid])GGPSEGASLRHYYNWLTRQRY-NH2 (also: TFA salt) [Compound 291]
7 | 15.8 nM | 48.8 nM | Y[Aib]EGTFTSDYSI[Aib]LEKQAQ[Aib]AFVEWLIKGGPEEGASLRHYYNWLTRQRY-NH2 (not fully specified (residue 28); also: TFA salt) [Compound 285]
8 | 9.68 nM | 46.3 nM | Y[Aib]EGTFTSDYSI[Aib]LEKQAQ[Aib]AFVEWLIK([εLys-γGlu-Glu-γGlu-γGlu-γGlu-C20 diacid])GGPSEGASLRHYYNWLTRQRY-NH2 (also: TFA salt) [Compound 290]
9 | 11 nM | 31.6 nM | Y[Aib]EGTFTSDYSI[Aib]LEKQAQ[Aib]AFVEWLIK([AEEA-AEEA-γGlu-γGlu-γGlu-C18 diacid])GGPSEGASLRHYYNWLTRQRY-NH2 (also: TFA salt) [Compound 299]

The binders below were run against human GLP-1 receptor (human, UniProt P43220 24-463) (assay: cell-based or functional assay).

Row | EC50 hGLP1R 0.5% hP (CreLuc) | EC50 hGLP1R 100% hP (CreLuc) | Binder
10 | 0.14 nM | 3.51 nM | B1
11 | 0.23 nM | 11.3 nM | B2
12 | 0.18 nM | 4.21 nM | B3
13 | 0.13 nM | 5.01 nM | B4
14 | 0.14 nM | 3.53 nM | Y[Aib]EGTFTSDYSI[Aib]LEKQAQ[Aib]AFVEWLIKGGPSEGASLRHYYNWLTRQRY-NH2 (not fully specified (residue 28); also: TFA salt) [Compound 295]
15 | 0.1 nM | 2.35 nM | Y[Aib]EGTFTSDYSI[Aib]LEKQAQ[Aib]AFVEWLIK([Glu-Glu-Glu-Glu-C18 diacid])GGPSEGASLRHYYNWLTRQRY-NH2 (also: TFA salt) [Compound 291]
16 | 0.34 nM | 11.6 nM | Y[Aib]EGTFTSDYSI[Aib]LEKQAQ[Aib]AFVEWLIKGGPEEGASLRHYYNWLTRQRY-NH2 (not fully specified (residue 28); also: TFA salt) [Compound 285]
17 | 0.13 nM | 2.87 nM | Y[Aib]EGTFTSDYSI[Aib]LEKQAQ[Aib]AFVEWLIK([εLys-γGlu-Glu-γGlu-γGlu-γGlu-C20 diacid])GGPSEGASLRHYYNWLTRQRY-NH2 (also: TFA salt) [Compound 290]
18 | 0.08 nM | 2.97 nM | Y[Aib]EGTFTSDYSI[Aib]LEKQAQ[Aib]AFVEWLIK([AEEA-AEEA-γGlu-γGlu-γGlu-C18 diacid])GGPSEGASLRHYYNWLTRQRY-NH2 (also: TFA salt) [Compound 299]

What follows are binders tested against T2, human GIP receptor (assay: cell-based or functional assay).

Row | EC50 hGIPR 0.5% hP (CreLuc) | EC50 hGIPR 100% hP (CreLuc) | Binder
19 | 0.7 nM | 1.75 nM | B1
20 | 0.58 nM | 3.27 nM | B2
21 | 0.26 nM | 1.33 nM | B3
22 | 0.16 nM | 2.46 nM | B4
23 | 0.3 nM | 0.98 nM | Y[Aib]EGTFTSDYSI[Aib]LEKQAQ[Aib]AFVEWLIKGGPSEGASLRHYYNWLTRQRY-NH2 (not fully specified (residue 28); also: TFA salt) [Compound 295]
24 | 0.18 nM | 0.7 nM | Y[Aib]EGTFTSDYSI[Aib]LEKQAQ[Aib]AFVEWLIK([Glu-Glu-Glu-Glu-C18 diacid])GGPSEGASLRHYYNWLTRQRY-NH2 (also: TFA salt) [Compound 291]
25 | 1.57 nM | 1.54 nM | Y[Aib]EGTFTSDYSI[Aib]LEKQAQ[Aib]AFVEWLIKGGPEEGASLRHYYNWLTRQRY-NH2 (not fully specified (residue 28); also: TFA salt) [Compound 285]
26 | 0.89 nM | 1.18 nM | Y[Aib]EGTFTSDYSI[Aib]LEKQAQ[Aib]AFVEWLIK([εLys-γGlu-Glu-γGlu-γGlu-γGlu-C20 diacid])GGPSEGASLRHYYNWLTRQRY-NH2 (also: TFA salt) [Compound 290]
27 | 0.4 nM | 0.71 nM | Y[Aib]EGTFTSDYSI[Aib]LEKQAQ[Aib]AFVEWLIK([AEEA-AEEA-γGlu-γGlu-γGlu-C18 diacid])GGPSEGASLRHYYNWLTRQRY-NH2 (also: TFA salt) [Compound 299]
